We go through 1 substance from article PMC1405823.

In this data set the test system is BsSSB (6xHis-tagged, as purified) (Bacillus subtilis). As to the kind of experiment: EMSA. As to conditions: 100 mM Tris-HCl pH 7.5, 10 min at 37 °C, 12.5% native PAGE.

Turning to 50-base random sequence ssDNA, the binding signal (% probe shifted) stood at 50.
